Reference: patent US20060058504A1, “Peptides capable of inducing attraction to the axonal growth and their use for treating neurodegenerative diseases” (Centre National de la Recherche Scientific (CNRS), priority 2002, published 2006)

B1: A426D mutant L1Fc chimera (Fc fusion, UniProt P32004 20-1120, looked up)
chain: IQIPEEYEGHHVMEPPVITEQSPRRLVVFPTDDISLKCEASGKPEVQFRWTRDGVHFKPKEELGVTVYQSPHSGSFTITGNNSNFAQRFQGIYRCFASNKLGTAMSHEIRLMAEGAPKWPKETVKPVEVEEGESVVLPCNPPPSAEPLRIYWMNSKILHIKQDERVTMGQNGNLYFANVLTSDNHSDYICHAHFPGTRTIIQKEPIDLRVKATNSMIDRKPRLLFPTNSSSHLVALQGQPLVLECIAEGFPTPTIKWLRPSGPMPADRVTYQNHNKTLQLLKVGEEDDGEYRCLAENSLGSARHAYYVTVEAAPYWLHKPQSHLYGPGETARLDCQVQGRPQPEVTWRINGIPVEELAKDQKYRIQRGALILSNVQPSDTMVTQCEARNRHGLLLANAYIYVVQLPDKILTADNQTYMAVQGSTAYLLCKAFGAPVPSVQWLDEDGTTVLQDERFFPYANGTLGIRDLQANDTGRYFCLAANDQNNVTIMANLKVKDATQITQGPRSTIEKKGSRVTFTCQASFDPSLQPSITWRGDGRDLQELGDSDKYFIEDGRLVIHSLDYSDQGNYSCVASTELDVVESRAQLLVVGSPGPVPRLVLSDLHLLTQSQVRVSWSPAEDHNAPIEKYDIEFEDKEMAPEKWYSLGKVPGNQTSTTLKLSPYVHYTFRVTAINKYGPGEPSPVSETVVTPEAAPEKNPVDVKGEGNETTNMVITWKPLRWMDWNAPQVQYRVQWRPQGTRGPWQEQIVSDPFLVVSNTSTFVPYEIKVQAVNSQGKGPEPQVTIGYSGEDYPQAIPELEGIEILNSSAVLVKWRPVDLAQVKGHLRGYNVTYWREGSQRKHSKRHIHKDHVVVPANTTSVILSGLRPYSSYHLEVQAFNGRGSGPASEFTFSTPEGVPGHPEALHLECQSNTSLLLRWQPPLSHNGVLTGYVLSYHPLDEGGKGQLSFNLRDPELRTHNLTDLSPHLRYRFQLQATTKEGPGEAIVREGGTMALSGISDFGNISATAGENYSVVSWVPKEGQCNFRFHILFKALGEEKGGASLSPQYVSYNQSSYTQWDLQPDTDYEIHLFKERMFRHQMAVKTNGTGRVRLPPAGFATE
notes: not shown: immunoglobulin Fc, human
B2: H210Q mutant L1Fc chimera (Fc fusion, UniProt P32004 20-1120, looked up)
chain: IQIPEEYEGHHVMEPPVITEQSPRRLVVFPTDDISLKCEASGKPEVQFRWTRDGVHFKPKEELGVTVYQSPHSGSFTITGNNSNFAQRFQGIYRCFASNKLGTAMSHEIRLMAEGAPKWPKETVKPVEVEEGESVVLPCNPPPSAEPLRIYWMNSKILHIKQDERVTMGQNGNLYFANVLTSDNHSDYICQAHFPGTRTIIQKEPIDLRVKATNSMIDRKPRLLFPTNSSSHLVALQGQPLVLECIAEGFPTPTIKWLRPSGPMPADRVTYQNHNKTLQLLKVGEEDDGEYRCLAENSLGSARHAYYVTVEAAPYWLHKPQSHLYGPGETARLDCQVQGRPQPEVTWRINGIPVEELAKDQKYRIQRGALILSNVQPSDTMVTQCEARNRHGLLLANAYIYVVQLPAKILTADNQTYMAVQGSTAYLLCKAFGAPVPSVQWLDEDGTTVLQDERFFPYANGTLGIRDLQANDTGRYFCLAANDQNNVTIMANLKVKDATQITQGPRSTIEKKGSRVTFTCQASFDPSLQPSITWRGDGRDLQELGDSDKYFIEDGRLVIHSLDYSDQGNYSCVASTELDVVESRAQLLVVGSPGPVPRLVLSDLHLLTQSQVRVSWSPAEDHNAPIEKYDIEFEDKEMAPEKWYSLGKVPGNQTSTTLKLSPYVHYTFRVTAINKYGPGEPSPVSETVVTPEAAPEKNPVDVKGEGNETTNMVITWKPLRWMDWNAPQVQYRVQWRPQGTRGPWQEQIVSDPFLVVSNTSTFVPYEIKVQAVNSQGKGPEPQVTIGYSGEDYPQAIPELEGIEILNSSAVLVKWRPVDLAQVKGHLRGYNVTYWREGSQRKHSKRHIHKDHVVVPANTTSVILSGLRPYSSYHLEVQAFNGRGSGPASEFTFSTPEGVPGHPEALHLECQSNTSLLLRWQPPLSHNGVLTGYVLSYHPLDEGGKGQLSFNLRDPELRTHNLTDLSPHLRYRFQLQATTKEGPGEAIVREGGTMALSGISDFGNISATAGENYSVVSWVPKEGQCNFRFHILFKALGEEKGGASLSPQYVSYNQSSYTQWDLQPDTDYEIHLFKERMFRHQMAVKTNGTGRVRLPPAGFATE
notes: as for B1

Target: T1, wild-type L1Fc chimeric protein (human, UniProt P32004 20-1120)
T1 construct: Produced in COS-7 cells, purified on protein A-Sepharose; in the two-color assay it was held on anti-human IgG coated beads; also called soluble L1; wt; not shown: immunoglobulin Fc, human (cross-linked with anti-human Fc antibodies)
Assay: two-color FACS bead aggregation, mutant L1Fc beads with wild-type L1Fc beads, mixed aggregates at 30 min
Protocol: Excess unbound protein was removed by washing with PBS/5% FCS. […] Samples were diluted 1:5000 into ice cold PBS and the proportion of 2 colour aggregates was assessed using a fluorescence activated cell sorter (Becton Dickenson FACSort). […] Every mutant protein was assayed at least 3 separate times and standardised to a wild-type control conducted in parallel.
Mutated L1Fcs were therefore incubated with COS7 cells transfected with full-length wild-type L1 cDNA and binding was assessed by immunofluorescence.

| Binder | homophilic binding, percent of wild-type levels |
| --- | --- |
| B1 | 74.4 % of wild-type levels |
| B2 | 90.5 % of wild-type levels |
